Source: the supplement of paper PMC9112550, “Optimization of the antimicrobial peptide Bac7 by deep mutational scanning” (BMC Biology, 2022)

test system: Escherichia coli TOP10; experiment: shrunken log2 fold change of peptide-encoding DNA abundance (4.5 h post-induction vs induction); higher = less antimicrobial activity (less host growth inhibition); details: time post-induction: 4.5 h; library: site-saturation at positions 5, 18, 19, 20
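Further: peptides expressed intracellularly from a pBAD plasmid library in pooled LB shake-flask culture, induced with 0.3% L-arabinose, DNA abundance read by NGS, three biological replicates, DESeq2 with apeglm shrinkage.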

Row | Sequence | shrunken log2 fold change
1 | RRIRLRPPRLPRPRPRPNTIPRP | -0.796
2 | RRIRLRPPRLPRPRPRPNTNPRP | -0.576
3 | RRIRLRPPRLPRPRPRPNTRPRP | -0.273
4 | RRIRLRPPRLPRPRPRPNTSPRP | -0.333
5 | RRIRLRPPRLPRPRPRPNVPPRP | -0.213
6 | RRIRLRPPRLPRPRPRPNWCPRP | 0.374
7 | RRIRLRPPRLPRPRPRPNWFPRP | -0.00982
8 | RRIRLRPPRLPRPRPRPNWRPRP | 0.292
9 | RRIRLRPPRLPRPRPRPNYIPRP | -0.301
10 | RRIRLRPPRLPRPRPRPNYKPRP | -0.752
11 | RRIRLRPPRLPRPRPRPNYYPRP | -0.773
12 | RRIRLRPPRLPRPRPRPPDDPRP | 0.397
13 | RRIRLRPPRLPRPRPRPPDFPRP | -0.0501
14 | RRIRLRPPRLPRPRPRPPDMPRP | -0.111
15 | RRIRLRPPRLPRPRPRPPDQPRP | 0.349
16 | RRIRLRPPRLPRPRPRPPEPPRP | 0.232
17 | RRIRLRPPRLPRPRPRPPERPRP | 0.566
18 | RRIRLRPPRLPRPRPRPPEVPRP | -0.0157
19 | RRIRLRPPRLPRPRPRPPEWPRP | 0.682
20 | RRIRLRPPRLPRPRPRPPFIPRP | -0.635
21 | RRIRLRPPRLPRPRPRPPFNPRP | -0.116
22 | RRIRLRPPRLPRPRPRPPFQPRP | 0.0582
23 | RRIRLRPPRLPRPRPRPPKCPRP | 0.213
24 | RRIRLRPPRLPRPRPRPPKGPRP | 0.306
25 | RRIRLRPPRLPRPRPRPPLRPRP | 0.386

Row | Sequence | shrunken log2 fold change
26 | RRIRLRPPRLPRPRPRPPMLPRP | -0.0338
27 | RRIRLRPPRLPRPRPRPPMSPRP | 0.0743
28 | RRIRLRPPRLPRPRPRPPNEPRP | -0.0407
29 | RRIRLRPPRLPRPRPRPPSFPRP | -0.244
30 | RRIRLRPPRLPRPRPRPPSWPRP | 0.0349
31 | RRIRLRPPRLPRPRPRPPTAPRP | 0.228
32 | RRIRLRPPRLPRPRPRPPTEPRP | 0.296
33 | RRIRLRPPRLPRPRPRPPVRPRP | 0.426
34 | RRIRLRPPRLPRPRPRPPWFPRP | 0.165
35 | RRIRLRPPRLPRPRPRPPWRPRP | 0.445
36 | RRIRLRPPRLPRPRPRPPYLPRP | -0.0206
37 | RRIRLRPPRLPRPRPRPPYRPRP | -0.0286
38 | RRIRLRPPRLPRPRPRPPYSPRP | -0.125
39 | RRIRLRPPRLPRPRPRPPYWPRP | 0.106
40 | RRIRLRPPRLPRPRPRPQAQPRP | 0.0698
41 | RRIRLRPPRLPRPRPRPQCHPRP | 0.0598
42 | RRIRLRPPRLPRPRPRPQCIPRP | -0.0123
43 | RRIRLRPPRLPRPRPRPQCTPRP | 0.0199
44 | RRIRLRPPRLPRPRPRPQCWPRP | -0.0159
45 | RRIRLRPPRLPRPRPRPQDFPRP | 0.0788
46 | RRIRLRPPRLPRPRPRPQDGPRP | -0.0806
47 | RRIRLRPPRLPRPRPRPQDIPRP | 0.133
48 | RRIRLRPPRLPRPRPRPQDSPRP | -0.276
49 | RRIRLRPPRLPRPRPRPQEFPRP | 0.00998
50 | RRIRLRPPRLPRPRPRPQESPRP | 0.133

Row | Sequence | shrunken log2 fold change
51 | RRIRLRPPRLPRPRPRPQEYPRP | -0.846
52 | RRIRLRPPRLPRPRPRPQFGPRP | -0.291
53 | RRIRLRPPRLPRPRPRPQGEPRP | 0.125
54 | RRIRLRPPRLPRPRPRPQHDPRP | -0.0854
55 | RRIRLRPPRLPRPRPRPQHEPRP | -0.0398
56 | RRIRLRPPRLPRPRPRPQIAPRP | -0.0971
57 | RRIRLRPPRLPRPRPRPQIKPRP | -0.187
58 | RRIRLRPPRLPRPRPRPQKFPRP | 0.0452
59 | RRIRLRPPRLPRPRPRPQKSPRP | -0.139
60 | RRIRLRPPRLPRPRPRPQLGPRP | -0.0132
61 | RRIRLRPPRLPRPRPRPQLRPRP | -0.00627
62 | RRIRLRPPRLPRPRPRPQMTPRP | -0.0928
63 | RRIRLRPPRLPRPRPRPQNMPRP | -0.232
64 | RRIRLRPPRLPRPRPRPQPPPRP | 0.517
65 | RRIRLRPPRLPRPRPRPQQAPRP | -0.0623
66 | RRIRLRPPRLPRPRPRPQQCPRP | 0.146
67 | RRIRLRPPRLPRPRPRPQQRPRP | -0.299
68 | RRIRLRPPRLPRPRPRPQQYPRP | -0.277
69 | RRIRLRPPRLPRPRPRPQSPPRP | -0.0515
70 | RRIRLRPPRLPRPRPRPQSRPRP | -0.377
71 | RRIRLRPPRLPRPRPRPQSTPRP | -0.0595
72 | RRIRLRPPRLPRPRPRPQVKPRP | -0.319
73 | RRIRLRPPRLPRPRPRPQVMPRP | -0.0202
74 | RRIRLRPPRLPRPRPRPQYVPRP | 0.0564
75 | RRIRLRPPRLPRPRPRPRAAPRP | 0.417

Row | Sequence | shrunken log2 fold change
76 | RRIRLRPPRLPRPRPRPRAQPRP | 0.423
77 | RRIRLRPPRLPRPRPRPRCAPRP | 0.504
78 | RRIRLRPPRLPRPRPRPRCMPRP | -0.0665
79 | RRIRLRPPRLPRPRPRPRDTPRP | -0.0364
80 | RRIRLRPPRLPRPRPRPRFLPRP | -0.144
81 | RRIRLRPPRLPRPRPRPRFMPRP | -0.244
82 | RRIRLRPPRLPRPRPRPRGFPRP | 0.124
83 | RRIRLRPPRLPRPRPRPRHRPRP | -0.0544
84 | RRIRLRPPRLPRPRPRPRIDPRP | -0.0317
85 | RRIRLRPPRLPRPRPRPRKDPRP | 0.0699
86 | RRIRLRPPRLPRPRPRPRKMPRP | 0.281
87 | RRIRLRPPRLPRPRPRPRKPPRP | 0.751
88 | RRIRLRPPRLPRPRPRPRMKPRP | -0.00259
89 | RRIRLRPPRLPRPRPRPRNCPRP | -0.51
90 | RRIRLRPPRLPRPRPRPRNKPRP | -0.156
91 | RRIRLRPPRLPRPRPRPRPTPRP | 0.484
92 | RRIRLRPPRLPRPRPRPRQAPRP | -0.00965
93 | RRIRLRPPRLPRPRPRPRQEPRP | 0.0259
94 | RRIRLRPPRLPRPRPRPRRIPRP | 0.214
95 | RRIRLRPPRLPRPRPRPRRKPRP | -0.00224
96 | RRIRLRPPRLPRPRPRPRSSPRP | -0.277
97 | RRIRLRPPRLPRPRPRPRSWPRP | 0.297
98 | RRIRLRPPRLPRPRPRPRTKPRP | 0.567
99 | RRIRLRPPRLPRPRPRPRYLPRP | -0.0102
100 | RRIRLRPPRLPRPRPRPRYSPRP | -0.087

Row | Sequence | shrunken log2 fold change
101 | RRIRLRPPRLPRPRPRPRYWPRP | -0.0087
102 | RRIRLRPPRLPRPRPRPRYYPRP | -0.103
103 | RRIRLRPPRLPRPRPRPSCCPRP | -0.212
104 | RRIRLRPPRLPRPRPRPSCEPRP | -0.0674
105 | RRIRLRPPRLPRPRPRPSCGPRP | -0.583
106 | RRIRLRPPRLPRPRPRPSCVPRP | -0.0228
107 | RRIRLRPPRLPRPRPRPSDRPRP | -0.147
108 | RRIRLRPPRLPRPRPRPSFLPRP | -0.562
109 | RRIRLRPPRLPRPRPRPSGQPRP | -0.0893
110 | RRIRLRPPRLPRPRPRPSGSPRP | 0.182
111 | RRIRLRPPRLPRPRPRPSKLPRP | -0.388
112 | RRIRLRPPRLPRPRPRPSNAPRP | -0.204
113 | RRIRLRPPRLPRPRPRPSNGPRP | -0.00256
114 | RRIRLRPPRLPRPRPRPSPMPRP | -0.107
115 | RRIRLRPPRLPRPRPRPSQTPRP | -0.217
116 | RRIRLRPPRLPRPRPRPSRMPRP | -0.241
117 | RRIRLRPPRLPRPRPRPSRTPRP | -0.204
118 | RRIRLRPPRLPRPRPRPSTEPRP | 0.0451
119 | RRIRLRPPRLPRPRPRPSVCPRP | 0.0879
120 | RRIRLRPPRLPRPRPRPSVEPRP | 0.0961
121 | RRIRLRPPRLPRPRPRPSWLPRP | -0.532
122 | RRIRLRPPRLPRPRPRPSYPPRP | -0.472
123 | RRIRLRPPRLPRPRPRPTAGPRP | 0.53
124 | RRIRLRPPRLPRPRPRPTAKPRP | 0.134
125 | RRIRLRPPRLPRPRPRPTCLPRP | -0.255

Row | Sequence | shrunken log2 fold change
126 | RRIRLRPPRLPRPRPRPTEQPRP | 0.0272
127 | RRIRLRPPRLPRPRPRPTFGPRP | -0.0654
128 | RRIRLRPPRLPRPRPRPTFRPRP | 0.0593
129 | RRIRLRPPRLPRPRPRPTGTPRP | 0.104
130 | RRIRLRPPRLPRPRPRPTHSPRP | 0.122
131 | RRIRLRPPRLPRPRPRPTIQPRP | -0.0934
132 | RRIRLRPPRLPRPRPRPTIYPRP | -0.334
133 | RRIRLRPPRLPRPRPRPTKNPRP | 0.00698
134 | RRIRLRPPRLPRPRPRPTKYPRP | -0.47
135 | RRIRLRPPRLPRPRPRPTLIPRP | -0.407
136 | RRIRLRPPRLPRPRPRPTMPPRP | -0.0783
137 | RRIRLRPPRLPRPRPRPTMRPRP | 0.836
138 | RRIRLRPPRLPRPRPRPTNMPRP | -0.537
139 | RRIRLRPPRLPRPRPRPTPAPRP | 0.306
140 | RRIRLRPPRLPRPRPRPTRDPRP | 0.454
141 | RRIRLRPPRLPRPRPRPTRQPRP | -0.0888
142 | RRIRLRPPRLPRPRPRPTSHPRP | -0.0914
143 | RRIRLRPPRLPRPRPRPTSRPRP | 0.0104
144 | RRIRLRPPRLPRPRPRPTVEPRP | 0.114
145 | RRIRLRPPRLPRPRPRPTVFPRP | 0.156
146 | RRIRLRPPRLPRPRPRPTVHPRP | -0.131
147 | RRIRLRPPRLPRPRPRPTVPPRP | -0.0925
148 | RRIRLRPPRLPRPRPRPTWKPRP | -0.06
149 | RRIRLRPPRLPRPRPRPTWQPRP | 0.187
150 | RRIRLRPPRLPRPRPRPTWRPRP | 0.337
